B1: Azoarcus group I ribozyme (parent)
chain: GUGCCUUGCGCCGGGAAACCACGCAAGGGAUGGUGUCAAAUUCGGCGAAACCUAAGCGCCCGCCCGGGCGUAUGGCAACGCCGAGCCAAGCUUCGGCGCCUGCGCCGAUGAAGGUGUAGAGACUAGACGGCACCCACCUAAGGCAAACGCUAUGGUGAAGGCAUAGUCCAGGGAGUGGCGAAAGUCACACAAACCGG

Variants of: B1
Experiment: reverse-splicing fitness (ratio to wild type); higher = more active; in vitro selection; Mg2+ level not given
Summary of the method: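 An in vitro group I ribozyme library with randomized positions was T7-transcribed and gel-purified. In triplicate, 10 pmol RNA in EPPS pH 7.5 was reacted with 50 pmoles of a 30-nt RNA substrate for 1 h at 37 °C across several added MgCl2 levels (1–48 mM), then stopped with EDTA. Products were reverse transcribed from a substrate-complementary primer, PCR-amplified and sequenced (HiSeq 4000). Fitness is a variant's read proportion after selection over that before, normalised to wild type.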

Variant	reverse-splicing fitness
C82U A120C C150U C169U U176G	0.00448
C82U A120G A145C C150G U176G	0.00257
C82U A120G A145C C150G U176C	0.00608
C82U A120G A145C C150G U176A	0.00438
C82U A120G A145C C150A C169G U176G	0.00402
C82U A120G A145C C150A C169G U176C	0.0125
C82U A120G A145C C150A C169G U176A	0.0215
C82U A120C A145G C150A C169U U176G	0.0043
C82U A120C A145G C150A C169U U176C	0.0166
C82U A120C A145G C150A C169U U176A	0.0136
C82U A120C A145U C150G C169G	0.0059
C82U A120C A145U C150G C169U	0.00863
C82U A120C A145U C150G C169A	0.00827
C82U A120C A145U C150G U176C	0.0134
C82U A120C A145U C150G U176A	0.00757
C82U A120C A145U C150G U176G	0.0036
C82U A120C A145U C169G U176G	0.00338
C82U A120C A145U C169G U176C	0.00836
C82U A120C A145U C169G U176A	0.00692
C82U A120C U176C	0.0725
C82U A120C U176A	0.048

Variant	reverse-splicing fitness
C82U A120C U176G	0.00931
C82U A120C A145G C150G U176G	0.00605
C82U A120C A145G C150G U176A	0.00924
C82U A120C A145G C150G U176C	0.0157
C82U A120C C150A U176G	0.00583
C82U A120C C150A U176A	0.0163
C82U A120C C150A U176C	0.0193
C82U A120C C150G C169G U176G	0.00432
C82U A120C C150G C169G U176C	0.00447
C82U A120C C150G C169G U176A	0.00705
C82U A120C A145C U176C	0.0651
C82U A120C A145C U176A	0.0438
C82U A120C A145C U176G	0.00964
C82U A120C C150G U176G	0.00299
C82U A120C C150G U176A	0.00635
C82U A120C C150G U176C	0.0118
C82U A120C A145C C150U U176A	0.0173
C82U A120C A145C C150U U176G	0.00608
C82U A120C A145C C150U U176C	0.0218
C82U A120G A145C C150U C169U U176C	0.00975
C82U A120G A145C C150U C169U U176A	0.0235

Variant	reverse-splicing fitness
C82U A120G A145C C150U C169U U176G	0.00351
C82U A120G A145C C150U C169G	0.00988
C82U A120G A145C C150U C169A	0.00913
C82U A120G A145C C150U C169U	0.00884
C82U A120C C169U U176G	0.00414
C82U A120C C169U U176A	0.0188
C82U A120C C169U U176C	0.0166
C82U A120G A145C C150A U176G	0.00372
C82U A120G A145C C150A U176C	0.0066
C82U A120G A145C C150A U176A	0.0076
C82U A120C A145C C169A U176G	0.00299
C82U A120C A145C C169A U176C	0.00368
C82U A120C A145C C169A U176A	0.00575
C82U A120C C150G C169U U176G	0.00422
C82U A120C C150G C169U U176C	0.0136
C82U A120C C150G C169U U176A	0.00844
C82U A111U C150U C169G U176A	0.013
C82U A111U C150U C169G U176C	0.0162
C82U A111U C150U C169G U176G	0.00639
C82U A120C A145G C150U C169A U176A	0.0152
C82U A120C A145G C150U C169A U176C	0.0131

Variant	reverse-splicing fitness
C82U A120C A145G C150U C169A U176G	0.00464
C82U A120C A145C C150U	0.0393
C82U A120C A145C C150A	0.0114
C82U A120C A145C C150G	0.0204
C82U A120G A145C C150G C169U U176G	0.00443
C82U A120G A145C C150G C169U U176C	0.0104
C82U A120G A145C C150G C169U U176A	0.0158
C82U A120C A145G C150U C169A	0.0101
C82U A120C A145G C150U C169G	0.00809
C82U A120C A145G C150U C169U	0.0209
C82U A111U C150U C169A	0.00856
C82U A111U C150U C169G	0.00892
C82U A111U C150U C169U	0.0102
C82U A120C A145C C150G C169A U176G	0.00379
C82U A120C A145C C150G C169A U176A	0.00866
C82U A120C A145C C150G C169A U176C	0.0042
C82U A120G A145C C150U U176A	0.00845
C82U A120C A145C C150G C169U U176G	0.00403
C82U A120C A145C C150G C169U U176A	0.00992
C82U A120C A145C C150G C169U U176C	0.00991

Reference: the RNAGym collection of RNA variant scans (doi:10.1093/molbev/msab373)
